For data set [1], the target named is T1, SPP–myc (signal peptide peptidase, myc-tagged) (human), Q8TCT9.
T1 chain: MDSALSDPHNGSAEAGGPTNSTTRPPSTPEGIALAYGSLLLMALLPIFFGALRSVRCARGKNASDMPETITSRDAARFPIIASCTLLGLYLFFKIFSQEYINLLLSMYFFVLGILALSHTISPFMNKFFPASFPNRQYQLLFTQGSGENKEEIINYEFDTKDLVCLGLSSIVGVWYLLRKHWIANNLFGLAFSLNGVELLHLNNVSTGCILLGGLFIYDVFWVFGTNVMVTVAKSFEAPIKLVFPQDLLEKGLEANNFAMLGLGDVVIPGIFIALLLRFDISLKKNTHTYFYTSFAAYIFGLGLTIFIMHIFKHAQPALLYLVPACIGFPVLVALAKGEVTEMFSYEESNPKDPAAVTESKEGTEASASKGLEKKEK
Kind of data set: SDS/PAGE. The settings on record: remark: other sources report otherwise.

Data set [2] deals with the molecule itself. Kind of data set: native gel or EMSA.

Positions count from the first letter of the chain named. Names and notes keep the numbering of the source.

B1: SPP–myc (signal peptide peptidase, myc-tagged), Q8TCT9 1-377 (enzyme)
chain: T1 chain
In turn, B1 registered a stoichiometry N in data set [1] of 2.

B2: SPP^D/A–myc (SPP-D265A, catalytically inactive, myc-tagged) (enzyme)
chain: T1 chain with D265A
On to B2, for which the “stoichiometry N” value in data set [2] came out at 2.

(Values after publication PMC2860808 (Biochemical Journal, 2010).)
